Here are results for five substances from the supplement of paper PMC5998384.

In series [1] the test system is HeLa Kyoto. Put plainly: solubility in G1/S (NP-40 vs SDS abundance) (log2 ratio); higher = more soluble. Particulars: cell cycle stage: G1/S.
In series [2] the test system is HeLa Kyoto. Put plainly: melting temperature (median over replicates), in situ; higher = more thermally stable.
Series [3] has as its system HeLa Kyoto. Description: solubility change mitosis vs G1/S (difference of NP-40 vs SDS log2 ratios) (log2 ratio difference); higher = more soluble in mitosis.
Series [4] concerns HeLa Kyoto. Description: thermal stability score vs G1/S (z-score of summed log2 fold changes over temperatures); higher = more thermally stable than in G1/S.
Setting [5] is: cell cycle stage: early G1 (4.5 h after nocodazole release).
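Throughout, for melting temperature (median over replicates), in situ: HeLa Kyoto cells synchronized by double thymidine or nocodazole block, proteins quantified by TMT10plex mass spectrometry, three independent biological replicates.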
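Throughout, for solubility change mitosis vs G1/S (difference of NP-40 vs SDS log2 ratios): synchronized HeLa Kyoto cells (double thymidine block for G1/S, nocodazole release for mitosis), protein amounts in NP-40 versus SDS lysates quantified by mass spectrometry, three biological replicates.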
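Throughout, for solubility in G1/S (NP-40 vs SDS abundance): HeLa Kyoto cells arrested at G1/S by double thymidine block, proteins quantified by TMT10plex mass spectrometry in mild NP-40 versus SDS extracts, three biological replicates.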
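Throughout, for thermal stability score vs G1/S (z-score of summed log2 fold changes over temperatures): synchronized HeLa Kyoto cells, proteins quantified by TMT10plex mass spectrometry, three biological replicates, mitosis taken 0.5 h after nocodazole release, G1/S directly after double thymidine block.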

Turning to “MAVRSLWAGRLRVQRLLAWSAAWESKGWPLPFSTATQRTAGEDCRSEDPPDELGPPLAERALRVKAVKLEKEVQDLTVRYQRAIADCENIRRRTQRCVEDAKIFGIQSFCKDLVEVADILEKTTECISEESEPEDQKLTLEKVFRGLLLLEAKLKSVFAKHGLEKLTPIGDKYDPHEHELICHVPAGVGVQPGTVALVRQDGYKLHGRTIRLARVEVAVESQRRL [GRPEL2]”, the “solubility in G1/S (log2)” value in the series on HeLa Kyoto [1] was 0.335. This substance came in with a melting temperature in the series on HeLa Kyoto [2] (cell cycle stage: mitosis) of 48.4 °C. Further, the “solubility change mitosis (log2)” value with HeLa Kyoto [3] is -0.104. In addition, the thermal stability score with HeLa Kyoto [4] (setting [5]) is -0.696; with HeLa Kyoto [4] (cell cycle stage: mitosis), 2.19.

Regarding “MADDDVLFEDVYELCEVIGKGPFSVVRRCINRETGQQFAVKIVDVAKFTSSPGLSTEDLKREASICHMLKHPHIVELLETYSSDGMLYMVFEFMDGADLCFEIVKRADAGFVYSEAVASHYMRQILEALRYCHDNNIIHRDVKPHCVLLASKENSAPVKLGGFGVAIQLGESGLVAGGRVGTPHFMAPEVVKREPYGKPVDVWGCGVILFILLSGCLPFYGTKERLFEGIIKGKYKMNPRQWSHISESAKDLVRRMLMLDPAERITVYEALNHPWLKERDRYAYKIHLPETVEQLRKFNARRKLKGAVLAAVSSHKFNSFYGDPPEELPDFSEDPTSSGLLAAERAVSQVLDSLEEIHALTDCSEKDLDFLHSVFQDQHLHTLLDLYDKINTKSSPQIRNPPSDAVQRAKEVLEEISCYPENNDAKELKRILTQPHFMALLQTHDVVAHEVYSDEALRVTPPPTSPYLNGDSPESANGDMDMENVTRVRLVQFQKNTDEPMGITLKMNELNHCIVARIMHGGMIHRQGTLHVGDEIREINGISVANQTVEQLQKMLREMRGSITFKIVPSYRTQSSSCERDSPSTSRQSPANGHSSTNNSVSDLPSTTQPKGRQIYVRAQFEYDPAKDDLIPCKEAGIRFRVGDIIQIISKDDHNWWQGKLENSKNGTAGLIPSPELQEWRVACIAMEKTKQEQQASCTWFGKKKKQYKDKYLAKHNAVFDQLDLVTYEEVVKLPAFKRKTLVLLGAHGVGRRHIKNTLITKHPDRFAYPIPHTTRPPKKDEENGKNYYFVSHDQMMQDISNNEYLEYGSHEDAMYGTKLETIRKIHEQGLIAILDVEPQALKVLRTAEFAPFVVFIAAPTITPGLNEDESLQRLQKESDILQRTYAHYFDLTIINNEIDETIRHLEEAVELVCTAPQWVPVSWVY [CASK]”, the “solubility in G1/S (log2)” value with HeLa Kyoto [1] is -0.129. In addition, the melting temperature with HeLa Kyoto [2] (cell cycle stage: G1/S) came to 52.1 °C; in the series with HeLa Kyoto [2] (cell cycle stage: mitosis), 51.9 °C. Further, in the series with HeLa Kyoto [3], the “solubility change mitosis (log2)” value is -0.0742. Besides, the thermal stability score is -0.366 with HeLa Kyoto [4] (setting [5]) and -0.0785 with HeLa Kyoto [4] (cell cycle stage: mitosis).

Regarding “MAGAQPGVHALQLEPPTVVETLRRGSKFIKWDEETSSRNLVTLRVDPNGFFLYWTGPNMEVDTLDISSIRDTRTGRYARLPKDPKIREVLGFGGPDARLEEKLMTVVSGPDPVNTVFLNFMAVQDDTAKVWSEELFKLAMNILAQNASRNTFLRKAYTKLKLQVNQDGRIPVKNILKMFSADKKRVETALESCGLKFNRSESIRPDEFSLEIFERFLNKLCLRPDIDKILLEIGAKGKPYLTLEQLMDFINQKQRDPRLNEVLYPPLRPSQARLLIEKYEPNQQFLERDQMSMEGFSRYLGGEENGILPLEALDLSTDMTQPLSAYFINSSHNTYLTAGQLAGTSSVEMYRQALLWGCRCVELDVWKGRPPEEEPFITHGFTMTTEVPLRDVLEAIAETAFKTSPYPVILSFENHVDSAKQQAKMAEYCRSIFGDALLIEPLDKYPLAPGVPLPSPQDLMGRILVKNKKRHRPSAGGPDSAGRKRPLEQSNSALSESSAATEPSSPQLGSPSSDSCPGLSNGEEVGLEKPSLEPQKSLGDEGLNRGPYVLGPADREDEEEDEEEEEQTDPKKPTTDEGTASSEVNATEEMSTLVNYIEPVKFKSFEAARKRNKCFEMSSFVETKAMEQLTKSPMEFVEYNKQQLSRIYPKGTRVDSSNYMPQLFWNVGCQLVALNFQTLDVAMQLNAGVFEYNGRSGYLLKPEFMRRPDKSFDPFTEVIVDGIVANALRVKVISGQFLSDRKVGIYVEVDMFGLPVDTRRKYRTRTSQGNSFNPVWDEEPFDFPKVVLPTLASLRIAAFEEGGKFVGHRILPVSAIRSGYHYVCLRNEANQPLCLPALLIYTEASDYIPDDHQDYAEALINPIKHVSLMDQRARQLAALIGESEAQAGQETCQDTQSQQLGSQPSSNPTPSPLDASPRRPPGPTTSPASTSLSSPGQRDDLIASILSEVAPTPLDELRGHKALVKLRSRQERDLRELRKKHQRKAVTLTRRLLDGLAQAQAEGRCRLRPGALGGAADVEDTKEGEDEAKRYQEFQNRQVQSLLELREAQVDAEAQRRLEHLRQALQRLREVVLDANTTQFKRLKEMNEREKKELQKILDRKRHNSISEAKMRDKHKKEAELTEINRRHITESVNSIRRLEEAQKQRHDRLVAGQQQVLQQLAEEEPKLLAQLAQECQEQRARLPQEIRRSLLGEMPEGLGDGPLVACASNGHAPGSSGHLSGADSESQEENTQL [PLCB3]”, the “solubility in G1/S (log2)” value in the series with HeLa Kyoto [1] came out at 0.0201. Moreover, the melting temperature is 52.7 °C with HeLa Kyoto [2] (cell cycle stage: G1/S) and 51.7 °C in the series on HeLa Kyoto [2] (cell cycle stage: mitosis). Also, in the series with HeLa Kyoto [3], the “solubility change mitosis (log2)” value amounted to 0.0123. In addition, the thermal stability score is 0.256 in the series with HeLa Kyoto [4] (setting [5]) and -0.25 in the series with HeLa Kyoto [4] (cell cycle stage: mitosis).

In the case of “MKSRFSTIDLRAVLAELNASLLGMRVNNVYDVDNKTYLIRLQKPDFKATLLLESGIRIHTTEFEWPKNMMPSSFAMKCRKHLKSRRLVSAKQLGVDRIVDFQFGSDEAAYHLIIELYDRGNIVLTDYEYVILNILRFRTDEADDVKFAVRERYPLDHARAAEPLLTLERLTEIVASAPKGELLKRVLNPLLPYGPALIEHCLLENGFSGNVKVDEKLETKDIEKVLVSLQKAEDYMKTTSNFSGKGYIIQKREIKPSLEADKPVEDILTYEEFHPFLFSQHSQCPYIEFESFDKAVDEFYSKIEGQKIDLKALQQEKQALKKLDNVRKDHENRLEALQQAQEIDKLKGELIEMNLQIVDRAIQVVRSALANQIDWTEIGLIVKEAQAQGDPVASAIKELKLQTNHVTMLLRNPYLLSEEEDDDVDGDVNVEKNETEPPKGKKKKQKNKQLQKPQKNKPLLVDVDLSLSAYANAKKYYDHKRYAAKKTQKTVEAAEKAFKSAEKKTKQTLKEVQTVTSIQKARKVYWFEKFLWFISSENYLIIGGRDQQQNEIIVKRYLTPGDIYVHADLHGATSCVIKNPTGEPIPPRTLTEAGTMALCYSAAWDARVITSAWWVYHHQVSKTAPTGEYLTTGSFMIRGKKNFLPPSYLMMGFSFLFKVDESCVWRHQGERKVRVQDEDMETLASCTSELISEEMEQLDGGDTSSDEDKEEHETPVEVELMTQVDQEDITLQSGRDELNEELIQEESSEDEGEYEEVRKDQDSVGEMKDEGEETLNYPDTTIDLSHLQPQRSIQKLASKEESSNSSDSKSQSRRHLSAKERREMKKKKLPSDSGDLEALEGKDKEKESTVHIETHQNTSKNVAAVQPMKRGQKSKMKKMKEKYKDQDEEDRELIMKLLGSAGSNKEEKGKKGKKGKTKDEPVKKQPQKPRGGQRVSDNIKKETPFLEVITHELQDFAVDDPHDDKEEQDLDQQGNEENLFDSLTGQPHPEDVLLFAIPICAPYTTMTNYKYKVKLTPGVQKKGKAAKTALNSFMHSKEATAREKDLFRSVKDTDLSRNIPGKVKVSAPNLLNVKRK [NEMF]”, in the series with HeLa Kyoto [1], the “solubility in G1/S (log2)” value was -0.354. For the same substance, the values for the melting temperature in the series on HeLa Kyoto [2] (cell cycle stage: G1/S) and in the series with HeLa Kyoto [2] (cell cycle stage: mitosis) were 50.8 °C and 50.2 °C, respectively. In addition, in the series with HeLa Kyoto [3], the “solubility change mitosis (log2)” value was -0.0231. Besides, the thermal stability score is -0.477 in the series with HeLa Kyoto [4] (setting [5]) and -1.01 with HeLa Kyoto [4] (cell cycle stage: mitosis).

Turning to PKN2, the “solubility in G1/S (log2)” value in the series on HeLa Kyoto [1] is -0.0314. In addition, the melting temperature in the series on HeLa Kyoto [2] (cell cycle stage: G1/S) was found to be 48.3 °C; in the series on HeLa Kyoto [2] (cell cycle stage: mitosis), 49.3 °C. Moreover, the “solubility change mitosis (log2)” value in the series on HeLa Kyoto [3] is -0.163. Besides, the thermal stability score was determined as 0.95 in the series with HeLa Kyoto [4] (setting [5]) and 1.36 in the series on HeLa Kyoto [4] (cell cycle stage: mitosis).
